# Reference: the supplement of paper PMC9233669
# Variants at the floor of the assay were thinned out.
# System: biotinyl-Phe-oxazolone
# Assay: self-aminoacylation, catalytic enhancement (BFO) (fold over background); higher = more active; k-Seq, kA / k0A0; sequences stand for … in GGGAAUGGAUCCACAUCUACGAAUUC…UUCACUGCAGACUUGACGAAGCUG
# Summary of the method: (§1)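 Mutagenized RNA pools with a 21-nt variable region (0.43 μM) reacted with each biotinyl-aminoacyl-oxazolone at 2–1250 μM. Reactions ran in 50 μL HEPES/NaCl/KCl/MgCl2/CaCl2 buffer with 5% acetonitrile, pH 6.9–7.0, for 90 minutes at room temperature. Streptavidin-captured RNA was quantified by triplicate qPCR and Illumina sequencing, and per-sequence fraction reacted was fit to a pseudo-first-order model with 1000 bootstraps. Catalytic enhancement is median kA divided by the uncatalyzed rate, the low-activity peak of a bimodal Gaussian fit.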
row,Sequence,self-aminoacylation
1,AAAUUUGCUAAUAGUCGAAAG [Fam3.1 aminoacylation ribozyme variant],4.94
2,AAAUUUGCUAAUAGUCGCAAG [Fam3.1 aminoacylation ribozyme variant],4
3,AAAUUUGCUAAUAGUCUCAAG [Fam3.1 aminoacylation ribozyme variant],2.03
4,AAGAUUGCUAAUAGUCACAAG [Fam3.1 aminoacylation ribozyme variant],2.63
5,AAGAUUGCUAAUAGUCGUAAG [Fam3.1 aminoacylation ribozyme variant],9.9
6,AAGAUUGCUUAUAGUCGCAAG [Fam3.1 aminoacylation ribozyme variant],2.44
7,AAGGUAGCUAAUAGUCGCAAG [Fam3.1 aminoacylation ribozyme variant],3.35
8,AAGGUUACUAAUAGUCGCAAG [Fam3.1 aminoacylation ribozyme variant],2.19
9,AAGGUUGCUAAUAGUCGCCAG [Fam3.1 aminoacylation ribozyme variant],2.54
10,AAGGUUGCUUAUAGUCGCAAG [Fam3.1 aminoacylation ribozyme variant],2.7
11,AAGUAUACUAAUAGUCGCAAG [Fam3.1 aminoacylation ribozyme variant],2.34
12,AAGUCUGCUAAUAGUCGCAAU [Fam3.1 aminoacylation ribozyme variant],6.06
13,AAGUUAGCUAAUAGUCACAAG [Fam3.1 aminoacylation ribozyme variant],3.83
14,AAGUUAGCUAAUAGUCGCAAU [Fam3.1 aminoacylation ribozyme variant],2.2
15,AAGUUAGCUAAUAGUCGCACG [Fam3.1 aminoacylation ribozyme variant],2.06
16,AAGUUCGCUAAUAGUCGAAAG [Fam3.1 aminoacylation ribozyme variant],4.18
17,AAGUUGGCUAAUAGUCGCCAG [Fam3.1 aminoacylation ribozyme variant],2.1
18,AAGUUGGCUAAUAGUCGCUAG [Fam3.1 aminoacylation ribozyme variant],2.22
19,AAGUUUACGAAUAGUCGCAAG [Fam3.1 aminoacylation ribozyme variant],2.82
20,AAGUUUACUAAUAGUUGCAAG [Fam3.1 aminoacylation ribozyme variant],2.19
21,AAGUUUGCGGAUAGUCGCAAG [Fam3.1 aminoacylation ribozyme variant],2.73
22,AAGUUUGCUAAUAAUCGUAAG [Fam3.1 aminoacylation ribozyme variant],3.54
23,AAGUUUGCUAAUAGUCGCAAA [Fam3.1 aminoacylation ribozyme variant],2.2

row,Sequence,self-aminoacylation
1,AAGUUUGCUAAUAGUCGCCUG [Fam3.1 aminoacylation ribozyme variant],7.8
2,AAGUUUGCUAAUUGUCGCAAU [Fam3.1 aminoacylation ribozyme variant],6.81
3,AAGUUUGUUAAAAGUCGCAAG [Fam3.1 aminoacylation ribozyme variant],2.4
4,AAGUUUUCUAAUAGUCUCAAG [Fam3.1 aminoacylation ribozyme variant],2.15
5,AAGUUUUCUAGUAGUCGCAAG [Fam3.1 aminoacylation ribozyme variant],2.53
6,AAUUUUGCUAAUAGUCACAAG [Fam3.1 aminoacylation ribozyme variant],3.77
7,AUAACCCUGGUCGUCGAGUGA [Fam2.1 aminoacylation ribozyme variant],2.78
8,AUACUUCAAACAAUCGGUCUA [Fam1A.1 aminoacylation ribozyme variant],3.14
9,AUACUUCAAACAAUCUGUCUG [Fam1A.1 aminoacylation ribozyme variant],2.2
10,AUCUUUGCUAAUAGUCGCAAG [Fam3.1 aminoacylation ribozyme variant],2.44
11,AUGUUUGCUAAUAGUCGCAAU [Fam3.1 aminoacylation ribozyme variant],2.83
12,AUGUUUGCUACUAGUCGCAAG [Fam3.1 aminoacylation ribozyme variant],2.12
13,AUGUUUGCUCAUAGUCGCAAG [Fam3.1 aminoacylation ribozyme variant],2.41
14,AUUACCCUGGUCAGCGAGUGC [Fam2.1 aminoacylation ribozyme variant],8.87
15,AUUCACCUACGUCAUCGGGUU [Fam2.2 aminoacylation ribozyme variant],2.52
16,AUUCACCUAGGUAAUCGAGUG [Fam2.2 aminoacylation ribozyme variant],2.87
17,AUUCACCUAGGUCACCUGGUG [Fam2.2 aminoacylation ribozyme variant],8.5
18,AUUCACCUAGGUCGUCGGGUC [Fam2.2 aminoacylation ribozyme variant],5.09
19,AUUCACCUAGGUCUUCGUGUG [Fam2.2 aminoacylation ribozyme variant],5.39
20,AUUCGCCUAGGUCAUCGGUUG [Fam2.2 aminoacylation ribozyme variant],4.32
21,AUUCUCCUAGGUCAUCGUGUG [Fam2.2 aminoacylation ribozyme variant],3.73
22,AUUGACCUAGGUCAUCGGGUC [Fam2.2 aminoacylation ribozyme variant],3.83
23,CAACUUCACACAAUCGGUCUG [Fam1A.1 aminoacylation ribozyme variant],3.02

row,Sequence,self-aminoacylation
1,CCACACAUCAAUCAAUCGGUC [Fam1B.1 aminoacylation ribozyme variant],2.22
2,CCACACUUCAAGCAAUCGAUC [Fam1B.1 aminoacylation ribozyme variant],2.02
3,CCACUGCAAACAAUCGGUCUG [Fam1A.1 aminoacylation ribozyme variant],4.13
4,CGACUGCAAACAAUCGGUCUG [Fam1A.1 aminoacylation ribozyme variant],6.2
5,CGACUUCAAACAAUCGAUCUG [Fam1A.1 aminoacylation ribozyme variant],3.21
6,CUACUCCAAACAAUCGGUUUG [Fam1A.1 aminoacylation ribozyme variant],2.1
7,CUACUGCAAACAAGCGGUCUG [Fam1A.1 aminoacylation ribozyme variant],5.58
8,CUACUGCAAACAAUCGGUCCG [Fam1A.1 aminoacylation ribozyme variant],6.96
9,CUACUGCAAACAAUCGGUGUG [Fam1A.1 aminoacylation ribozyme variant],3.44
10,CUACUUCAAACAAUCGCUCUG [Fam1A.1 aminoacylation ribozyme variant],2.58
11,CUACUUCAAACAAUCGGCCCG [Fam1A.1 aminoacylation ribozyme variant],3.03
12,CUACUUCAAACAAUCGGCCUU [Fam1A.1 aminoacylation ribozyme variant],2.48
13,CUAUUUCAACCAAUCGGUCUG [Fam1A.1 aminoacylation ribozyme variant],2.27
14,CUCCAUCAAACAAUCGGUCUG [Fam1A.1 aminoacylation ribozyme variant],2.14
15,CUCCUUCAAACACUCGGUCUG [Fam1A.1 aminoacylation ribozyme variant],6.18
16,GAGUUUGCUAAUAGCCGCAAG [Fam3.1 aminoacylation ribozyme variant],4.21
17,GAGUUUGCUAAUAGUCGCACG [Fam3.1 aminoacylation ribozyme variant],3
18,GAGUUUGCUAAUCGUCGCAAG [Fam3.1 aminoacylation ribozyme variant],2.55
19,GAGUUUGUUAAUAGUCGCAAG [Fam3.1 aminoacylation ribozyme variant],2.36
20,GUACAUCAAACAAUCGGUCUG [Fam1A.1 aminoacylation ribozyme variant],2
21,GUACCUCAAACAAUCGGUCUG [Fam1A.1 aminoacylation ribozyme variant],2.42
22,UCGUUUGCUAAUAGUCGCAAG [Fam3.1 aminoacylation ribozyme variant],4.06

# System: biotinyl-Trp-oxazolone
# Assay: self-aminoacylation, catalytic enhancement (BWO) (fold over background); higher = more active; k-Seq, kA / k0A0; sequences stand for … in GGGAAUGGAUCCACAUCUACGAAUUC…UUCACUGCAGACUUGACGAAGCUG
# Summary of the method: as §1
row,Sequence,self-aminoacylation
1,AAAUUUGCUAAUAGUCGCAAG [Fam3.1 aminoacylation ribozyme variant],2.13
2,AAGAUUGAUAAUAGUCGCAAG [Fam3.1 aminoacylation ribozyme variant],2.33
3,AAGAUUGCUAAUAGUCGUAAG [Fam3.1 aminoacylation ribozyme variant],2.41
4,AAGAUUGCUUAUAGUCGCAAG [Fam3.1 aminoacylation ribozyme variant],2.35
5,AUGACCCUGGUCAUCGAGUCA [Fam2.1 aminoacylation ribozyme variant],2.12
6,AUUACCCUGGUCAUCCAGUAA [Fam2.1 aminoacylation ribozyme variant],2.35
7,AUUACCCUGGUCAUGGAGUGG [Fam2.1 aminoacylation ribozyme variant],2.54
8,AUUACCGUGGUCAUCGAGCGA [Fam2.1 aminoacylation ribozyme variant],2.2
9,CCGCACUUCAAGCAAUCGGUA [Fam1B.1 aminoacylation ribozyme variant],2.16
10,CUUCACCUAGGUCAUCGGGAG [Fam2.2 aminoacylation ribozyme variant],2.1
11,GUUCACCUAGGUCAUCGGGAG [Fam2.2 aminoacylation ribozyme variant],2.13
